Reference: paper PMC10397247
Each block holds one binder with its values, some of them ahead of it.

Legend:
Assay in all cases: two-hybrid library CCmax;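 also: natural log of median RNA to DNA barcode read ratio; higher means stronger binding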
Conditions in all cases: mean of both orientations
[1] = molecular target: T1, 4H3365-AA
T1 chain: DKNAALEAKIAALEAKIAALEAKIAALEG

[2] = molecular target: T2, 4H355-AA
T2 chain: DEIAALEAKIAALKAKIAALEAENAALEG

[3] = molecular target: T3, 4H2211-AA
T3 chain: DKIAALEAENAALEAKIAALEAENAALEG

[4] = molecular target: T4, 4H2646-AA
T4 chain: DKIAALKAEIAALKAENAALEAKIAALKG

[5] = molecular target: T5, 4H369-AA
T5 chain: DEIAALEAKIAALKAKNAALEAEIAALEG

[6] = molecular target: T6, 4H662-AA
T6 chain: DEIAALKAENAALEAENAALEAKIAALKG

[7] = molecular target: T7, APC2237-AA
T7 chain: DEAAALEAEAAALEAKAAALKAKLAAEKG

[8] = molecular target: T8, P6-AA-1HGe-W
T8 chain: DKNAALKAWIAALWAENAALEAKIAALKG

[9] = molecular target: T9, P5-AA-12HGe-S
T9 chain: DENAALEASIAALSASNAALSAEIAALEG

[10] = molecular target: T10, P5-AA-1HAA-A
T10 chain: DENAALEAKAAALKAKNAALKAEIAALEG

[11] = molecular target: T11, P5-AA-1HGe-S
T11 chain: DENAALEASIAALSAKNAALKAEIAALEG

[12] = molecular target: T12, P5-AA-1HGe-T
T12 chain: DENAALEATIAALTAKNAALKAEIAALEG

B1: 4H1257-AA (peptide)
chain: DENAALEAENAALKAKIAALKAEIAALEG
- interaction score [1]: -1.46
- interaction score [2]: -1.88

B2: 4H1350-AA (peptide)
chain: DENAALEAKIAALKAEIAALEAKIAALKG
- interaction score [3]: -1.32
- interaction score [4]: -0.455
- interaction score [5]: 0.227
- interaction score [6]: -1.35

B4: 4H1401-AA (peptide)
chain: DENAALEAKIAALKAKNAALKAEIAALEG
- interaction score [8]: 1.14

Next, values leading:

- interaction score [7]: -1.46
B3: 4H1845-AA (peptide)
chain: DENAALKAKIAALEAKNAALEAKIAALEG

- interaction score [9]: -0.516
- interaction score [10]: 2.07
- interaction score [11]: 2.03
- interaction score [12]: 2.43
B5: 4H3606-AA (peptide)
chain: DKNAALKAEIAALEAENAALEAKIAALKG
